From article PMC6625514

Biological target: CD71 (transferrin receptor), used in ELISA (UniProt P02786 89-760)
Assay: ELISA

Sequence of CD71 (transferrin receptor), used in ELISA (P02786 89-760): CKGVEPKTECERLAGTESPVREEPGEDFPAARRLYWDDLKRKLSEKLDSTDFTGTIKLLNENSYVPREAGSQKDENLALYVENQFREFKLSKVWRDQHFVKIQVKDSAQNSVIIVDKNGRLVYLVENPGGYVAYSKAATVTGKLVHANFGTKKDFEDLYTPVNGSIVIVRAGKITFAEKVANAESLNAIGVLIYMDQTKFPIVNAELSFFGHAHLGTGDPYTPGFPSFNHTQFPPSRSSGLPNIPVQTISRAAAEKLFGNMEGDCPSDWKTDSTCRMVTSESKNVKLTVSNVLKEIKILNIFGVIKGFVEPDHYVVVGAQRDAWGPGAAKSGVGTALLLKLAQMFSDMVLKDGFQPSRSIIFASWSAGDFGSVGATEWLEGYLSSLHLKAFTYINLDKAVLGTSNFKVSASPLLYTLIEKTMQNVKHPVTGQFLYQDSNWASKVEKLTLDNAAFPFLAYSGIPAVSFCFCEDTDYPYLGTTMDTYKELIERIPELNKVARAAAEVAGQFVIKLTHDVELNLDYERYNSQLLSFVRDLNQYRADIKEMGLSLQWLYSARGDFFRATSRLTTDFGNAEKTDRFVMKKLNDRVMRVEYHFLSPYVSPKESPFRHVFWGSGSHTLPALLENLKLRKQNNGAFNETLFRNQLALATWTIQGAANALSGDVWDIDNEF

B1: XQ-2d (ssDNA)
DNA: ACTCATAGGGTTAGGGGCTGCTGGCCAGATACTCAGATGGTAGGGTTACTATGAGC
- Kd: 50.5 ± 27.3 nM
